Our source for the Kd, koff and kon values is PMC5017159.

The target in assay [1] is human heat shock protein 70 (hHsp70) (human) (UniProt P0DMV8). Briefly: BLI; Octet Red; biotinylated hHsp70 immobilised on streptavidin tips, dipped into E. coli GAPDH (39.5, 59.3, 88.9, 133.3 and 200 nM) in PBS; association 600 s, dissociation 900 s; 1:1 model.
In a further assay the target is human GAPDH (human) (UniProt P04406). Briefly: BLI; Octet Red; biotinylated human GAPDH immobilised on streptavidin tips, dipped into hHsp70 (2.05, 5.12, 12.8, 32 and 80 nM) in PBS; association 600 s, dissociation 900 s; 1:1 model.
Sequence of UniProt P04406 (P04406 whole entry): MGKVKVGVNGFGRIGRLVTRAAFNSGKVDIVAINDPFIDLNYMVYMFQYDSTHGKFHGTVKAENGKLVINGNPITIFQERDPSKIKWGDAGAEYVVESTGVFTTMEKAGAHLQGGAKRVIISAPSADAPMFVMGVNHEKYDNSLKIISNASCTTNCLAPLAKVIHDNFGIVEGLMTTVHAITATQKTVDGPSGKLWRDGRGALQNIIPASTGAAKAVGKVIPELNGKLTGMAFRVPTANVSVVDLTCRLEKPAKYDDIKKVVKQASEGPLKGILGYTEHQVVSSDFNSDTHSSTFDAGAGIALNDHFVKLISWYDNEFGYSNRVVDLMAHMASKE

In assay [1], “E. coli glyceraldehyde 3-phosphate deshydrogenase (GAPDH), recombinant (from UniProt P0A9B2 1-331) (enzyme)” registered an equilibrium dissociation constant (Kd) of 8.2 nM, a dissociation rate constant (koff) of 0.00024 s⁻¹ and a kon of 29300 M⁻¹ s⁻¹.
In the assay with human GAPDH (human), “human heat shock protein 70 (hHsp70) (from UniProt P0DMV8 1-641) (natural protein)” showed a dissociation constant (Kd) of 1.3 nM, an off-rate (koff) of 9.3e-05 s⁻¹ and a kon of 72400 M⁻¹ s⁻¹.
